Test results reported in the supplement of paper PMC7877785.
± gives the uncertainty stated by the source.

Experiment: self-splicing fitness, log relative to wild type (ln ratio); higher = more splicing; Tetrahymena group I intron in knt gene, E. coli kanamycin selection, DiMSum; sequences stand for … in CUCUCU…GGAGGGAAAAGUUAUCAGGCAUGCACCUGGUAGCUAGUCUUUAAACCAAUAGAUUGCAUCGGUUUAAAAGGCAAGACCGUCAAAUUGCGGGAAAGGGGUCAACAGCCGUUCAGUACCAAGUCUCAGGGGAAACUUUGAGAUGGCCUUGCAAAGGGUAUGGUAAUAAGCUGACGGACAUGGUCCUAACCACGCAGCCAAGUCCUAAGUCAACAGAUCUUCUGUUGAUAUGGAUGCAGUUCACAGACUAAAUGUCGGUCGGGGAAGAUGUAUUCUUCUCAUAAGAUAUAGUCGGACCUCUCCUUAAUGGGAGCUAGCGGAUGAAGUGAUGCAACACUGGAGCCGCUGGGAACUAAUUUGUAUGCGAAAGUAUAUUGAUUAGUUUUGGAGUACUCGUGGUCG
Method in brief: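 Library with all eight P1ex-region intron nucleotides randomised, intron inside the knt kanamycin-resistance gene on pET-22b(+), in E. coli BL21(DE3). Cells grew overnight at 37°C or 30°C on LB agar with or without 25 μg/mL kanamycin (plus 100 μg/mL carbenicillin, 50 μM IPTG, 0.2% rhamnose), in six replicate transformations. Pooled colonies were amplicon-sequenced on Illumina HiSeq 2500. DiMSum fitness is the error-weighted combination of wild-type-normalised replicate fold changes, kanamycin versus none.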

Sequence | self-splicing fitness (ln) (30 °C) | self-splicing fitness (ln) (37 °C)
CCGCAGCAAUAUUACGAAUU | -3.73 ± 0.19 | -2.51 ± 0.2
CCGCAGCAAUAUUACGAGGC | -3.72 ± 0.19 | -2.65 ± 0.23
CCGCAGCAAUAUUACGAGUC | -3.36 ± 0.26 | -3.29 ± 0.28
CCGCAGCAAUAUUACGAUCU | -3.81 ± 0.29 | -2.35 ± 0.26
CCGCAGCAAUAUUACGAUUA | -3.03 ± 0.23 | -2.72 ± 0.29
CCGCAGCAAUAUUACGCAAC | -3.22 ± 0.19 | -3.07 ± 0.32
CCGCAGCAAUAUUACGCAAU | -3.95 ± 0.18 | -3.67 ± 0.27
CCGCAGCAAUAUUACGCACG | -0.993 ± 0.097 | -0.578 ± 0.11
CCGCAGCAAUAUUACGCCUG | -1.69 ± 0.13 | -1.22 ± 0.16
CCGCAGCAAUAUUACGCGAA | -2.87 ± 0.18 | -2.5 ± 0.18
CCGCAGCAAUAUUACGCGAC | -2.84 ± 0.17 | -2.09 ± 0.26
CCGCAGCAAUAUUACGCUUA | -3.07 ± 0.17 | -2.9 ± 0.25
CCGCAGCAAUAUUACGGAUG | -1.99 ± 0.12 | -1.54 ± 0.13
CCGCAGCAAUAUUACGGCAG | -1.4 ± 0.081 | 0.0999 ± 0.098
CCGCAGCAAUAUUACGGCCG | -0.461 ± 0.12 | 0.198 ± 0.15
CCGCAGCAAUAUUACGGCGU | -2.44 ± 0.081 | -1.27 ± 0.096
CCGCAGCAAUAUUACGUCAC | -4.14 ± 0.19 | -2.84 ± 0.22
CCGCAGCAAUAUUACGUCAU | -3.18 ± 0.15 | -2.25 ± 0.2
CCGCAGCAAUAUUACGUCUC | -3.13 ± 0.24 | -2.56 ± 0.26
CCGCAGCAAUAUUACGUGAG | -0.587 ± 0.038 | -0.367 ± 0.051
CCGCAGCAAUAUUACGUUAU | -3.43 ± 0.17 | -2.77 ± 0.19
CCGCAGCAAUAUUACGUUGG | -3.26 ± 0.22 | -1.52 ± 0.2
CCGGAGCAAUAUUACGAACG | -0.608 ± 0.16 | 0.0318 ± 0.19
CCGGAGCAAUAUUACGAUAC |  | -1.97 ± 0.36
CCGGAGCAAUAUUACGAUAU |  | -2.37 ± 0.42

Sequence | self-splicing fitness (ln) (30 °C) | self-splicing fitness (ln) (37 °C)
CCGGAGCAAUAUUACGAUCA | -3.1 ± 0.42 | -2.63 ± 0.44
CCGGAGCAAUAUUACGCAGG | -3.9 ± 0.27 | -2.67 ± 0.23
CCGGAGCAAUAUUACGCAUG | -1.66 ± 0.14 | 0.0371 ± 0.22
CCGGAGCAAUAUUACGGAGU | -3.65 ± 0.2 | -3.41 ± 0.24
CCGGAGCAAUAUUACGGAUA | -2.42 ± 0.2 | -1.18 ± 0.23
CCGGAGCAAUAUUACGGCAC |  | -0.904 ± 0.44
CCGGAGCAAUAUUACGGCAG | -3.21 ± 0.24 | -3.16 ± 0.33
CCGGAGCAAUAUUACGGCAU | -2.81 ± 0.22 | -1.55 ± 0.19
CCGGAGCAAUAUUACGGCUG | -1.14 ± 0.15 | -0.43 ± 0.18
CCGGAGCAAUAUUACGGUAC | -2.73 ± 0.22 | -2.25 ± 0.4
CCGGAGCAAUAUUACGGUCU | -2.42 ± 0.22 | -2.54 ± 0.38
CCGGAGCAAUAUUACGGUGG | -3.8 ± 0.37 | -2.61 ± 0.36
CCGGAGCAAUAUUACGUGAG | -1.33 ± 0.12 | -0.689 ± 0.1
CCGGAGCAAUAUUACGUGGA | -3.59 ± 0.47 | -2.16 ± 0.25
CCGUAGCAAUAUUACGAAGA | -3.8 ± 0.35 | -2.08 ± 0.24
CCGUAGCAAUAUUACGACAC | -1.82 ± 0.22 | 
CCGUAGCAAUAUUACGACAG | -0.678 ± 0.11 | -0.234 ± 0.13
CCGUAGCAAUAUUACGACCU | -0.833 ± 0.34 | 
CCGUAGCAAUAUUACGACGG |  | -0.894 ± 0.28
CCGUAGCAAUAUUACGAGCG | -0.86 ± 0.12 | -0.719 ± 0.15
CCGUAGCAAUAUUACGAGGA | -2.96 ± 0.24 | -1.24 ± 0.18
CCGUAGCAAUAUUACGAUGG | -3.58 ± 0.2 | -3.38 ± 0.26
CCGUAGCAAUAUUACGAUUA | -2.57 ± 0.2 | -1.86 ± 0.26
CCGUAGCAAUAUUACGAUUU | -3.55 ± 0.17 | -2.08 ± 0.17
